Assay results taken from PMC6073527, “Functional Characterization and Structure-Guided Mutational Analysis of the Transsulfuration Enzyme Cystathionine γ-Lyase from Toxoplasma gondii” (International Journal of Molecular Sciences, 2018).

Legend:
[1] = target: T1, Cystathionine γ-lyase (TgCGL) (Toxoplasma gondii, UniProt A0A125YN40, S77E); assay: UV-visible absorption titration at […] and […] nm (no hydrolysis detected); format: binding
T1 construct: gene TGME49_312930; full-length, N-terminal His6 tag
T1 sequence (A0A125YN40 1-417 S77E): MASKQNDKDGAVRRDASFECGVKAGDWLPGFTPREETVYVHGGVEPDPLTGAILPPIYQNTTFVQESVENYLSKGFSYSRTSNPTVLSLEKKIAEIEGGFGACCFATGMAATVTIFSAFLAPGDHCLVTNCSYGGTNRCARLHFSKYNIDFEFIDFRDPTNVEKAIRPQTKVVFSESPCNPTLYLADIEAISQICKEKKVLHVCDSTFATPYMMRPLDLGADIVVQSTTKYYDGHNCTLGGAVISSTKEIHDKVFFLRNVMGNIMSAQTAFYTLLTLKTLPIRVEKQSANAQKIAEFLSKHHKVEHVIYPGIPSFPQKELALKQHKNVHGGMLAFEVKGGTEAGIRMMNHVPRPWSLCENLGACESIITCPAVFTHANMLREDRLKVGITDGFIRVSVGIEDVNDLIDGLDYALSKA

[2] = target: T2, Cystathionine γ-lyase (TgCGL) (Toxoplasma gondii, UniProt A0A125YN40); assay: UV-visible absorption titration at […] and […] nm; also substrate inhibition (Ki […]); format: binding
T2 construct: gene TGME49_312930; full-length, N-terminal His6 tag
T2 sequence (A0A125YN40 1-417): T1 sequence (A0A125YN40 1-417 S77E)

[3] = target: T3, Cystathionine γ-lyase (TgCGL) (Toxoplasma gondii, UniProt A0A125YN40, N360S); assay: as above; format: binding
T3 construct: gene TGME49_312930; full-length, N-terminal His6 tag

[4] = target: T4, Cystathionine γ-lyase (TgCGL) (Toxoplasma gondii, UniProt A0A125YN40); assay: intrinsic fluorescence titration of apo-TgCGL (excitation […] nm, emission […] nm); format: binding
T4 construct: gene TGME49_312930; full-length, N-terminal His6 tag (apo-protein)

[5] = system: N[C@@H](CCSC[C@H](N)C(=O)O)C(=O)O; assay: steady-state kinetics of the purified enzyme, DTNB assay (Km); format: biochemical, Toxoplasma gondii; conditions: PLP; pH 9.0; 37.0 °C
[6] = target: cystathionine γ-lyase from Toxoplasma gondii (Toxoplasma gondii); assay: SEC; analytical gel filtration on Superdex 200 HR 10/300 GL; 50 mM sodium phosphate buffer pH 8.5, 150 mM NaCl, 0.1 mM DTT; mass from a calibration curve
[7] = system: N[C@@H](CSCSC[C@H](N)C(=O)O)C(=O)O; assay: steady-state kinetics of the purified enzyme, LDH-coupled assay (Km); format: biochemical, Toxoplasma gondii; conditions: PLP; pH 9.0; 37.0 °C
[8] = system: N[C@@H](CCSC[C@H](N)C(=O)O)C(=O)O; assay: purified protein; format: biochemical, Toxoplasma gondii; conditions: PLP active site; external aldimine with PLP (modelled); pH 9.0; 37.0 °C
[9] = substrate: NCCSC[C@H](N)C(=O)O; assay: steady-state kinetics of the purified enzyme, α,β-elimination (Km); format: biochemical, Toxoplasma gondii; conditions: PLP
[10] = substrate: N[C@@H](CSCSC[C@H](N)C(=O)O)C(=O)O; assay: steady-state kinetics of the purified enzyme, LDH-coupled assay (Km); format: biochemical, Toxoplasma gondii; conditions: PLP; pH 9.0; 37.0 °C; remark: listed apart in the source
purified protein = substrate: N[C@@H](CCSC[C@H](N)C(=O)O)C(=O)O; assay: purified protein; conditions: PLP active site; external aldimine with PLP (modelled); pH 9.0; 37.0 °C

`N[C@@H](CS)C(=O)O` [L-cysteine] was tested, and the Kd [1] was 677 ± 180 (335 nm); 874 ± 87 (421 nm) µM, the Kd [2] was 306 ± 41 (335 nm); 273 ± 52 (421 nm) µM and the Kd [3] was 335 ± 15 (335 nm); 331 ± 20 (421 nm) µM.

In the case of `Cc1ncc(COP(=O)(O)O)c(C=O)c1O` [PLP], the Kd [4] is reported as 170 ± 40 nM.

Work on “Cystathionine γ-lyase (TgCGL) (Toxoplasma gondii ME49; S77A)” yielded a Km [5] of 2400 ± 300 µM, a kcat [5] of 0.7 ± 0.1 s⁻¹ and a kcat/Km [5] of 290 ± 80 M⁻¹ s⁻¹.

Molecule “cystathionine γ-lyase from Toxoplasma gondii (enzyme)” has a stoichiometry N [6] of 4.

Molecule “Cystathionine γ-lyase (TgCGL) (Toxoplasma gondii ME49; N360S)” has a Km [7] of 860 ± 30 µM, a kcat [7] of 0.19 ± 0.01 s⁻¹ and a kcat/Km [7] of 220 ± 20 M⁻¹ s⁻¹. The Km [8] was 1100 ± 100 µM, the kcat [8] was 0.08 ± 0.01 s⁻¹ and the kcat/Km [8] was 73 ± 16 M⁻¹ s⁻¹.

B1: Cystathionine γ-lyase (TgCGL) (Toxoplasma gondii ME49) (protein)
chain: T1 sequence (A0A125YN40 1-417 S77E)
notes: full-length, N-terminal His6 tag
With B1 the Km [9] was 1300 ± 100 µM, the Km [10] was 510 ± 10 µM and the kcat [10] was 0.24 ± 0.01 s⁻¹. For the same molecule, the kcat/Km [10] was 470 ± 30 M⁻¹ s⁻¹ and the Km (purified protein) was 900 ± 100 µM.
